B2: VcDnaB, replicative helicase DnaB from Vibrio cholerae (enzyme)
chain: MADPRTDNRNRKIPDAQVDAIKVPPHSLEAEQSVIGGLLLDNERWDTVSEHVMTQDFYSRPHRLIFDGVKSILEAGKPLDLITLSEYLEQREQLEDVGGFAYLADLAKNTPSAANINAYAEIVAERALVRNLIGVANEIADAGYDPQGRNAEDLLDLAESKVFAIAEARTSENEGPKNVDSILERTLERIELLYKTPQDGVTGVNTGFTDLNKKTAGLQGSDLIIVAARPSMGKTTFAMNLCENAAMEQDKPVLIFSLEMPAEQIMMRMLASLSRVDQTKIRTGQLDDEDWARISSTMGILMEKKNMYIDDSSGLTPTEVRSRARRIAREHGGLSLIMVDYLQLMRVPALTDNRTLEIAEISRSLKALAKELNVPVVALSQLNRSLEQRADKRPVNSDLRESGSIEQDADLIMFIYRDEVYHPDSPLKGTAEIIIGKQRNGPIGSVRLTFQGHYSRFDNYAGPAFDDE

Data set [1] addresses VcDnaB, replicative helicase DnaB from Vibrio cholerae (Vibrio cholerae). Put plainly: SEC-SAXS.
The target is the same in data set [2]. Briefly: SPR.
The next data set deals with VcDnaB^S296G (Vibrio cholerae, UniProt A0A085R2T8 1-468, S296G). Put plainly: SPR.
Data set [3] addresses B2. Put plainly: SPR. In general terms: In SPR one partner is held on a chip, and binding of the other changes the refractive index at the surface.
Another data set deals with EcDnaB^G299S (E. coli, UniProt P0ACB0 1-471, G299S). Briefly: SPR.
The data set “crystal structure” deals with the molecule itself. Briefly: crystal structure.
The data set “SEC-MALS” concerns the molecule itself. Briefly: SEC-MALS. In general terms: In gel filtration, larger molecules generally elute earlier.

Regarding “VcDciA, DciA from Vibrio cholerae (natural protein)”, the stoichiometry N (VcDciA per VcDnaB hexamer) in data set [1] turned out to be 3. This molecule displayed a stoichiometry N (VcDciA per 6 VcDnaB) in data set [2] of 3.

B1: EcDnaC, helicase loader DnaC from E. coli (natural protein)
chain: MKNVGDLMQRLQKMMPAHIKPAFKTGEELLAWQKEQGAIRSAALERENRAMKMQRTFNRSGIRPLHQNCSFENYRVECEGQMNALSKARQYVEEFDGNIASFIFSGKPGTGKNHLAAAICNELLLRGKSVLIITVADIMSAMKDTFRNSGTSEEQLLNDLSNVDLLVIDEIGVQTESKYEKVIINQIVDRRSSSKRPTGMLTNSNMEEMTKLLGERVMDRMRLGNSLWVIFNWDSYRSRVTGKEY
In the case of B1, the binding result (with VcDnaB^S296G; in data set [3]) was “binds” throughout. In addition, the “fold change of the dissociation rate against EcDnaB” value with EcDnaB^G299S amounted to 2 fold.
For B2, the stoichiometry N – broadly, a count of units in the complex or per binding partner – in “crystal structure” is 6 subunits.

B3: VcDnaB, replicative helicase DnaB from Vibrio cholerae (enzyme)
chain: MADPRTDNRNRKIPDAQVDAIKVPPHSLEAEQSVIGGLLLDNERWDTVSEHVMTQDFYSRPHRLIFDGVKSILEAGKPLDLITLSEYLEQREQLEDVGGFAYLADLAKNTPSAANINAYAEIVAERALVRNLIGVANEIADAGYDPQGRNAEDLLDLAESKVFAIAEARTSENEGPKNVDSILERTLERIELLYKTPQDGVTGVNTGFTDLNKKTAGLQGSDLIIVAARPSMGKTTFAMNLCENAAMEQDKPVLIFSLEMPAEQIMMRMLASLSRVDQTKIRTGQLDDEDWARISSTMGILMEKKNMYIDDSSGLTPTEVRSRARRIAREHGGLSLIMVDYLQLMRVPALTDNRTLEIAEISRSLKALAKELNVPVVALSQLNRSLEQRADKRPVNSDLRESGSIEQDADLIMFIYRDEVYHPDSPLKGTAEIIIGKQRNGPIGSVRLTFQGHYSRFDNYAGPAFDDE
Take B3: the “stoichiometry N” value in “SEC-MALS” is 6.

These data come from paper PMC8216460 (Nucleic Acids Research, 2021).
